According to patent US20220177594A1 (ZOETIS SERVICES, published 2022):

B1: Mu_02D09_VH (SEQ ID NO: 31)_D31A (antibody, V domains shown)
VH: EVQLVESGGGLVKPGGSLTLSCAASGFTFSAYGMHWLRQAPEKGLEWVAYISSGSRAVFFADTVKGRFTISRDNAKNTLFLQMTSLRSDDTAMYYCARDRYDGRGFAYWGQGTLVTVSA
VL: DIVLTQSPATLSVTPGDSVSLSCRASQSISNNLHWYQQTSHESPRLLITYASQSISGIPSRFSGSGSGTDFTLSINSVETEDFGMYFCQQSNSWPLTFGAGTKLELKR
B2: Mu_02D09_VH (SEQ ID NO: 31)_Y32A (antibody, V domains shown)
VH: EVQLVESGGGLVKPGGSLTLSCAASGFTFSDAGMHWLRQAPEKGLEWVAYISSGSRAVFFADTVKGRFTISRDNAKNTLFLQMTSLRSDDTAMYYCARDRYDGRGFAYWGQGTLVTVSA
VL: DIVLTQSPATLSVTPGDSVSLSCRASQSISNNLHWYQQTSHESPRLLITYASQSISGIPSRFSGSGSGTDFTLSINSVETEDFGMYFCQQSNSWPLTFGAGTKLELKR
B3: Mu_02D09_VH (SEQ ID NO: 31)_G33A (antibody, V domains shown)
VH: EVQLVESGGGLVKPGGSLTLSCAASGFTFSDYAMHWLRQAPEKGLEWVAYISSGSRAVFFADTVKGRFTISRDNAKNTLFLQMTSLRSDDTAMYYCARDRYDGRGFAYWGQGTLVTVSA
VL: DIVLTQSPATLSVTPGDSVSLSCRASQSISNNLHWYQQTSHESPRLLITYASQSISGIPSRFSGSGSGTDFTLSINSVETEDFGMYFCQQSNSWPLTFGAGTKLELKR
B4: Mu_02D09_VH (SEQ ID NO: 31)_H35A (antibody, V domains shown)
VH: EVQLVESGGGLVKPGGSLTLSCAASGFTFSDYGMAWLRQAPEKGLEWVAYISSGSRAVFFADTVKGRFTISRDNAKNTLFLQMTSLRSDDTAMYYCARDRYDGRGFAYWGQGTLVTVSA
VL: DIVLTQSPATLSVTPGDSVSLSCRASQSISNNLHWYQQTSHESPRLLITYASQSISGIPSRFSGSGSGTDFTLSINSVETEDFGMYFCQQSNSWPLTFGAGTKLELKR
B5: Mu_02D09_VH (SEQ ID NO: 31)_Y50A (antibody, V domains shown)
VH: EVQLVESGGGLVKPGGSLTLSCAASGFTFSDYGMHWLRQAPEKGLEWVAAISSGSRAVFFADTVKGRFTISRDNAKNTLFLQMTSLRSDDTAMYYCARDRYDGRGFAYWGQGTLVTVSA
VL: DIVLTQSPATLSVTPGDSVSLSCRASQSISNNLHWYQQTSHESPRLLITYASQSISGIPSRFSGSGSGTDFTLSINSVETEDFGMYFCQQSNSWPLTFGAGTKLELKR
B6: Mu_02D09_VH (SEQ ID NO: 31)_S52A (antibody, V domains shown)
VH: EVQLVESGGGLVKPGGSLTLSCAASGFTFSDYGMHWLRQAPEKGLEWVAYIASGSRAVFFADTVKGRFTISRDNAKNTLFLQMTSLRSDDTAMYYCARDRYDGRGFAYWGQGTLVTVSA
VL: DIVLTQSPATLSVTPGDSVSLSCRASQSISNNLHWYQQTSHESPRLLITYASQSISGIPSRFSGSGSGTDFTLSINSVETEDFGMYFCQQSNSWPLTFGAGTKLELKR
B7: Mu_02D09_VH (SEQ ID NO: 31)_D62A (antibody, V domains shown)
VH: EVQLVESGGGLVKPGGSLTLSCAASGFTFSDYGMHWLRQAPEKGLEWVAYISSGSRAVFFAATVKGRFTISRDNAKNTLFLQMTSLRSDDTAMYYCARDRYDGRGFAYWGQGTLVTVSA
VL: DIVLTQSPATLSVTPGDSVSLSCRASQSISNNLHWYQQTSHESPRLLITYASQSISGIPSRFSGSGSGTDFTLSINSVETEDFGMYFCQQSNSWPLTFGAGTKLELKR
B8: Mu_02D09_VH (SEQ ID NO: 31)_D99A (antibody, V domains shown)
VH: EVQLVESGGGLVKPGGSLTLSCAASGFTFSDYGMHWLRQAPEKGLEWVAYISSGSRAVFFADTVKGRFTISRDNAKNTLFLQMTSLRSDDTAMYYCARARYDGRGFAYWGQGTLVTVSA
VL: DIVLTQSPATLSVTPGDSVSLSCRASQSISNNLHWYQQTSHESPRLLITYASQSISGIPSRFSGSGSGTDFTLSINSVETEDFGMYFCQQSNSWPLTFGAGTKLELKR
B9: Mu_02D09_VH (SEQ ID NO: 31)_Y101A (antibody, V domains shown)
VH: EVQLVESGGGLVKPGGSLTLSCAASGFTFSDYGMHWLRQAPEKGLEWVAYISSGSRAVFFADTVKGRFTISRDNAKNTLFLQMTSLRSDDTAMYYCARDRADGRGFAYWGQGTLVTVSA
VL: DIVLTQSPATLSVTPGDSVSLSCRASQSISNNLHWYQQTSHESPRLLITYASQSISGIPSRFSGSGSGTDFTLSINSVETEDFGMYFCQQSNSWPLTFGAGTKLELKR
B10: Mu_02D09_VH (SEQ ID NO: 31)_D102A (antibody, V domains shown)
VH: EVQLVESGGGLVKPGGSLTLSCAASGFTFSDYGMHWLRQAPEKGLEWVAYISSGSRAVFFADTVKGRFTISRDNAKNTLFLQMTSLRSDDTAMYYCARDRYAGRGFAYWGQGTLVTVSA
VL: DIVLTQSPATLSVTPGDSVSLSCRASQSISNNLHWYQQTSHESPRLLITYASQSISGIPSRFSGSGSGTDFTLSINSVETEDFGMYFCQQSNSWPLTFGAGTKLELKR
B11: Mu_02D09_VH (SEQ ID NO: 31)_R104A (antibody, V domains shown)
VH: EVQLVESGGGLVKPGGSLTLSCAASGFTFSDYGMHWLRQAPEKGLEWVAYISSGSRAVFFADTVKGRFTISRDNAKNTLFLQMTSLRSDDTAMYYCARDRYDGAGFAYWGQGTLVTVSA
VL: DIVLTQSPATLSVTPGDSVSLSCRASQSISNNLHWYQQTSHESPRLLITYASQSISGIPSRFSGSGSGTDFTLSINSVETEDFGMYFCQQSNSWPLTFGAGTKLELKR
B12: Mu_02D09_VL (SEQ ID NO: 33)_Q27A (antibody, V domains shown)
VH: EVQLVESGGGLVKPGGSLTLSCAASGFTFSDYGMHWLRQAPEKGLEWVAYISSGSRAVFFADTVKGRFTISRDNAKNTLFLQMTSLRSDDTAMYYCARDRYDGRGFAYWGQGTLVTVSA
VL: DIVLTQSPATLSVTPGDSVSLSCRASASISNNLHWYQQTSHESPRLLITYASQSISGIPSRFSGSGSGTDFTLSINSVETEDFGMYFCQQSNSWPLTFGAGTKLELKR
B13: Mu_02D09_VL (SEQ ID NO: 33)_I29A (antibody, V domains shown)
VH: EVQLVESGGGLVKPGGSLTLSCAASGFTFSDYGMHWLRQAPEKGLEWVAYISSGSRAVFFADTVKGRFTISRDNAKNTLFLQMTSLRSDDTAMYYCARDRYDGRGFAYWGQGTLVTVSA
VL: DIVLTQSPATLSVTPGDSVSLSCRASQSASNNLHWYQQTSHESPRLLITYASQSISGIPSRFSGSGSGTDFTLSINSVETEDFGMYFCQQSNSWPLTFGAGTKLELKR
B14: Mu_02D09_VL (SEQ ID NO: 33)_S56A (antibody, V domains shown)
VH: EVQLVESGGGLVKPGGSLTLSCAASGFTFSDYGMHWLRQAPEKGLEWVAYISSGSRAVFFADTVKGRFTISRDNAKNTLFLQMTSLRSDDTAMYYCARDRYDGRGFAYWGQGTLVTVSA
VL: DIVLTQSPATLSVTPGDSVSLSCRASQSISNNLHWYQQTSHESPRLLITYASQSIAGIPSRFSGSGSGTDFTLSINSVETEDFGMYFCQQSNSWPLTFGAGTKLELKR
B15: Mu_02D09_VL (SEQ ID NO: 33)_W94A (antibody, V domains shown)
VH: EVQLVESGGGLVKPGGSLTLSCAASGFTFSDYGMHWLRQAPEKGLEWVAYISSGSRAVFFADTVKGRFTISRDNAKNTLFLQMTSLRSDDTAMYYCARDRYDGRGFAYWGQGTLVTVSA
VL: DIVLTQSPATLSVTPGDSVSLSCRASQSISNNLHWYQQTSHESPRLLITYASQSISGIPSRFSGSGSGTDFTLSINSVETEDFGMYFCQQSNSAPLTFGAGTKLELKR
B16: Mu_02D09_VL (SEQ ID NO: 33)_L96A (antibody, V domains shown)
VH: EVQLVESGGGLVKPGGSLTLSCAASGFTFSDYGMHWLRQAPEKGLEWVAYISSGSRAVFFADTVKGRFTISRDNAKNTLFLQMTSLRSDDTAMYYCARDRYDGRGFAYWGQGTLVTVSA
VL: DIVLTQSPATLSVTPGDSVSLSCRASQSISNNLHWYQQTSHESPRLLITYASQSISGIPSRFSGSGSGTDFTLSINSVETEDFGMYFCQQSNSWPATFGAGTKLELKR
B17: Mu_09E09_VH (SEQ ID NO: 35)_S35A (antibody, V domains shown)
VH: DVKLVESGEGLVKPGGSLKLSCAASGFTFSSYAMAWVRQTPEKRLEWVAYISSGGDYIYYADTVKGRFTISRDNARNTLYLQMSSLKSEDTAMYYCTRDPITGTFAYWGQGTLVTVSA
VL: DLQMTQTTSSLSASLGDRVTISCRASQDINNYLNWYQQKPDGTVKLLIYYTSTLHSGVPSRFSGSGSGTDYSLTISNLEQEDIATYFCQQGNTLPWTFGGGTKLEIKR
B18: Mu_09E09_VH (SEQ ID NO: 35)_Y50A (antibody, V domains shown)
VH: DVKLVESGEGLVKPGGSLKLSCAASGFTFSSYAMSWVRQTPEKRLEWVAAISSGGDYIYYADTVKGRFTISRDNARNTLYLQMSSLKSEDTAMYYCTRDPITGTFAYWGQGTLVTVSA
VL: DLQMTQTTSSLSASLGDRVTISCRASQDINNYLNWYQQKPDGTVKLLIYYTSTLHSGVPSRFSGSGSGTDYSLTISNLEQEDIATYFCQQGNTLPWTFGGGTKLEIKR

These binders were tested against T1, ANTIBODY EXPRESSION CONTROL (assay: SPR Biacore, expression control).
T1 construct: also called mouse anti-canine antibody (capture reagent of the expression control ELISA)
Protocol: The affinity with which candidate mAbs bind canine, feline, and human (SEQ ID NO: 122; Human_OSMR) (R&D Systems, Minneapolis, Minn.) OSMR was determined using surface plasmon resonance (SPR) on a Biacore system (Biacore Life Sciences (GE Healthcare), Uppsala, Sweden). To avoid affinity differences associated with differential surface preparation that can occur when immobilizing antibodies to surfaces; OSMR from each species was directly conjugated to individual surfaces. Immobilization was obtained by amine coupling 5 μg/mL OSMR using N-hydroxysuccinimide (NHS)/1-Ethyl-3-(3-dimethylaminopropyl) carbodiimide (EDC) chemistry. Chips were quenched with ethanolamine and the affinity with which all candidate mAbs bound to the immobilized OSMR was evaluated. All curves were fit to a 1:1 model. […] Results for affinity measurements are described herein.
Data from an ELISA represents an equilibrium state where the antibody is allowed to associate and dissociate over a one-hour period resulting in steady-state binding. Using Biacore, the target protein is immobilized to a surface and the antibody is passed over this surface in a mobile liquid phase. Protein-protein interaction is determined from changes in the surface resonance which allows for calculation of association (kₐ), disassociation (kd), and affinity constant (KD). While not wishing to be bound to one hypothesis we present data from ELISA and Biacore experiments, using the same preparation of antibody, that may result in agreement between the two methods with respect to binding but also may show contradictory results due to the nature of the binding kinetics and different assay dynamics. The data presented in Table A (in combination with experimental results from yeast display mutational analysis in Example 21) allow for the definition of a structure:function relationship to be defined between the anti-OSMR antibodies described here and their ability to bind and block IL-31 and OSM-mediated signaling through the OSMR receptor.
Work on B1 yielded a Kd of 0.0685 nM, a koff of 8.32e-05 s⁻¹ and a kon of 1.21e+06 M⁻¹ s⁻¹.
With B2 the Kd was 0.366 nM, the koff was 4.43e-05 s⁻¹ and the kon was 121000 M⁻¹ s⁻¹.
B3 showed a Kd of 0.0225 nM, a koff of 7.35e-06 s⁻¹ and a kon of 327000 M⁻¹ s⁻¹.
Binder B4 has a Kd of 0.803 nM, a koff of 0.000112 s⁻¹ and a kon of 139000 M⁻¹ s⁻¹.
B5 showed a Kd of 0.00259 nM, a koff of 3.68e-07 s⁻¹ and a kon of 142000 M⁻¹ s⁻¹.
B6 showed a Kd of 0.0233 nM, a koff of 7.55e-06 s⁻¹ and a kon of 323000 M⁻¹ s⁻¹.
For B7, the Kd was 0.0019 nM, the koff was 2.45e-07 s⁻¹ and the kon was 129000 M⁻¹ s⁻¹.
Work on B8 yielded a Kd of 1.63 nM, a koff of 0.000384 s⁻¹ and a kon of 235000 M⁻¹ s⁻¹.
Work on B9 yielded a Kd of 0.28 nM, a koff of 4.11e-05 s⁻¹ and a kon of 147000 M⁻¹ s⁻¹.
Binder B10 has a Kd of 0.547 nM, a koff of 7.4e-05 s⁻¹ and a kon of 135000 M⁻¹ s⁻¹.
With B11 the Kd was 0.229 nM, the koff was 2.41e-05 s⁻¹ and the kon was 105000 M⁻¹ s⁻¹.
With B12 the Kd was 1.2 nM, the koff was 0.00019 s⁻¹ and the kon was 158000 M⁻¹ s⁻¹.
Binder B13 has a Kd of 0.714 nM, a koff of 9.47e-05 s⁻¹ and a kon of 133000 M⁻¹ s⁻¹.
B14 was tested, and the Kd was 0.844 nM, the koff was 0.000111 s⁻¹ and the kon was 132000 M⁻¹ s⁻¹.
For B15, the Kd was 0.0977 nM, the koff was 3.16e-05 s⁻¹ and the kon was 323000 M⁻¹ s⁻¹.
B16 showed a Kd of 0.0659 nM, a koff of 2.43e-05 s⁻¹ and a kon of 370000 M⁻¹ s⁻¹.
With B17 the Kd was 0.18 nM, the koff was 5.34e-05 s⁻¹ and the kon was 297000 M⁻¹ s⁻¹.
B18 was tested, and the Kd was 0.179 nM, the koff was 5.4e-05 s⁻¹ and the kon was 301000 M⁻¹ s⁻¹.
